Measurements from the PETadex activity labels.

B1: unnamed (protein)
chain: MQKIRSIGRAGRARWGRAALTAVALAAALSAAQAQTVVGPDPTAAALEAARGPFAVSTTTIKAPRGFRAGTVFFPASVTTPMAAVAVVPGFTARQSSINWLGPRLASWGFVVVTIDTNSTSDQPAARATQLMAALKQVVDESKVAGSPFFGKVDGARLGVMGHSMGGGGSLIAARNNPTLKAAIPMAPWNLGRNFSGVSVPTLVMACQNDAVAPVAQHASPFFESIPATVDKAFLEVRGGSHLCPTTASVANQPLLGKYSVAWMKRFMDNDTRFSAFLCDAPHQADLAGNKISAYRENCPY
B2: unnamed (protein)
chain: MRHRSISALVLGTAVVAGAAQAQINPFAKGPDPTPASIQATGPFAISMQTVPRAAGFGGATVYSPNDPGSYALVVLCPGFIETQSAISAVGQRLATHGFVVATIDTVTTIDFPASRGTQLIAALQTITALNTGPVAGKIDTTRLVVGGHSMGGGGTLEASRTNPAIKAGLPIAPFHFVKQFNTPVPQLITGGQVDAIAPVGQHAIPFFEMLPDATPKIYAELTGGNHFFVTQNPPNQPINKLLLAWTKRFADNDLRYEQFITATAVQAEVANGALSQTRREATPF
B3: unnamed (protein)
chain: MTTKRHRTATTPTRRARLALLAAATLLSFAAQAQVVIFQENFNSGLGQFTASGTVSTSSGGAVMQGCYNCTDGAITSKPISTVGFTNLKLSYDRTTTGLDSGEYGVAAYSVNGGAWTVIESIQSSSGRVTIALPAAAANQASLRLRFRVNASLSAETFTVDNVVLEGTPGGAPGPGGNPYQKGPDPTAAALEASAGPFTVATTTVSASSASGYGGGTIYYPTNVAGPFAAIAVVPGYTATQSSISWWGPRLASHGFVVITIDTNSTSDLPASRATQLMAALNQLKTFSATSGHAIYGKVDPNRLGVMGWSYGGGGTLIAARDNPTLKAAIPLAPKTSSGTDFSGITVPTLIVGCESDTTAPVSSWAIPFYNSIPASTKKAYLEINNGDHFCVTTSNSSADKAILGKYGVAWMKRFLDNDTRYSPFLCGAPHQADLSGNAAISEYRDNCPY
B4: unnamed (protein)
chain: MTPTTHDDIDSHPSRTPAMRRAWPAFIAGTLLSLGAQAQVAIFKEDFQGGIGQFTSAGAASVSNGRVVMKGCLTCADGSVTSKEISTVGFDALRLSYDRTIVGLDAGEYGEVAYAVDGGEWTMLWGRLDNRSGRGTIDLPAAAANQKSLRLRYRIHASDSAETFTLDNVLLEGTPRSVTHPNPYAKGPDPTASALEAKAGPFTYAATVVPSGKASGYGGGTLYHPDKEVGPFAAIVIVPGYTATQESVKWWGPLLASHGFVVMVIDTLDNRDLPGSRATQLMAAVSQVKGFNTTQGHAIQGKVDPARVGIMGWSFGGGGTLLAAQAHPELKAAIPMAPKTWGETLKTADIKVPTLIIGCQADTTAPVKDWAIPFHEGIPGSVRKAYLEIAQGGHGCVSAQFNKKAADLAMMGKYGVSWMKRFLDEDTRYSPYLCGAPHQADVNGKTVVSAYRENCPY
B5: unnamed (protein)
chain: MQYASTPTLRHVAQFAKASVLAATVLLASVAHAQFEKGPNPTVSALERAGTFATRTTTVSSLSASGFGGGTIYYPTAAGSYGVIAISPGFTARQSSISWMGTRIASHGFVVITIDTNTTSDQPDSRARQLKAALDKVVSLSTGRTNVLYGKVDASRLAVAGHSMGGGGSLAAARDYPTLKAAVPLAPWHTTKSFSSVRVPTLIISGENDSVAGNSSHSIPFYNSLPSSTPKGYLELNAEDHFFPQDSGEYGLVGKYMISWFKRFVDSDTRYSPFLCGAEHQAQVRVTSRVSDSRTNCPY
B6: unnamed (protein)
chain: MIKDFLLSRVVIVAGTLIFSMPTLAEITVSETTVVIPKEALPVPTLSNCITDSAITADALSDTRDNGPFTVSTKRVPRQSANGFGGGTIHYPTNASGCGLLGGIAVVPGYVSYESSIKWWGPRLASWGFVVITINTNHISDNPDSRATQLNAALDHLLLDSTVANMVDRDRLGVIGWSMGGGGALRLATDRSTVRAIIAQTPYHDTSYPTMDTPALFIACENDRIAPNKKYTNVFYNNATGPKMKVEVSNGSHFCASHGFHEILLSKPGIAWMQRYINGDTRFDQFLCSSENYNSSPRISSYNYKNCL
B7: unnamed (protein)
chain: MISNRRAPARRAGAALTALALAVVLAACDIRGPAPTEQILEAPSGPFAVGSVAVPSSAGFGGGTIYYPSEAAGPFGIIAVTPGFLGNQTSIGTWGPRLASHGFVTITINTTGGFILPDQRSAEQRQALTYVVNQGNRSSSPIFGKVDGDRKGVAGHSMGGGGTLVSAREDPTIRAAVPFAPWYTSTNFSNVTVPTLIVACQSDGVAPVASHASPFYNSIPATTDKSYISVAGADHFCANSPTGGANDVGKYVVAFFKRFVDGDTRYDPWVCG
B8: unnamed (protein)
chain: MKTTTIIKSTLCAFTLTFSLSAFSGGGGGGGGGNNGNLPPPDTCNTNCGYEIGPNPTLGFLQASQGPLPVSSTNVSSSVNGFGGGTIYYPSNISDEMAAISIAPGFTNTQSAVAWWGPILASHGFVVITINTNSRFDQPESRSRQLDSALSYLISEGDRGSSPISGLVDENRLATMGFSMGGGGSLRSASRNRLSAAVPLAPWSTGSNNFDDIGVPTLIMACENDTTARVNTHASPFYNAIPGSTDKAFMEINNGPHNCANGESSTNRSLLSTYGVSWMKRFLDKDRRYNQFLCGPNHEANSRISEYRDTCSYG
B9: unnamed (protein)
chain: MERGNHRAKWAIGFGLLLLGAAAHSQTNPYQKGPDPTSATLNATSGSFAVATSTVSSLAANGFGGGTIYYPTQTGTYAVLAISPGFTATQSSIAWLGRRISTHGFVVITIDTNSTLDQPPSRATQLMAALRHVTDLSSSTVRSRVDASRRGVAGHSMGGGGTLIAARDNPSLKAAVPLTAWSTTKIFSTVQVPTLVVGAESDSVAPVSSHSIPFYNSLSNSLDKAYAELNNASHFAPNSTNTPIGRYSVAWVKRFMDNDTRYTPFLCGTPHTSYATSTVFSDYRSTCPY
B10: unnamed (protein)
chain: MHTKNYRNDARTVPKRSSLAKSLLAGGILLFSAAANADIIFQEDFNSSLGQFTASGSVTTGTYGARMAAAYGSGDAFITSAPISTVGFTNISLTWTRTTSGLDSGESGIAMFSTNGSTWTTIESVQSASGVRTVALPAGAAGQSALRLRFEVDGSLSSETYTVDTIRLEGTGSGGGCEPNCEPPPTGNPYERGPAPTTSSLEASTGPFQVATTTVSSTTADGYGSGTIYHPTGVTGPFAAIAICPGYTATQTSISQWGPRLASHGFVVITINTNSTSDQPPSRATQLMAALDQLVTFSNTSGHAIFGKVDGTRRGVMGHSMGGGGSLIAARDNPSLKAAIPMAPWYSSSTNFSAIRTPTMIVACESDSIARVSSHALPFYNSIPSTTPKAFAERNNGSHNCPINNNDWWPTLNKYGVAWMKRFLDNDTRYSPWLCGAPHEAVVDGTTYSRYLSNCPY
B11: unnamed (protein)
chain: MAKFTGAAQFLKASMAIGAIVLSAAASAQTNPYQRGPAPTDSSLAADRGPLAYSSFTVSRPSGYRAGTVYYPTNAGGTVGAIAVVPGFTAYQSDINWWGPRLASWGFVVITIDTNSTLDQPSSRSRQQLAALDQVATLSRTSGSPIYNKVDTSRMGVMGWSMGGGGSLISTQNRPSLKASIPFAPWNGTSSFSSVTTPTFIIACQSDLIAPVASHANDFYNSLSRPPKMFLEIRGGSHYCANSSNGNKDVLGAKGVAWMKRY
B12: unnamed (protein)
chain: MPGYQGTQQNLQWLAPRLASWGFTVINLGTNTLTDDPDSRATQIRNAGTQLLSFSATAGNPIANKVRSVTASTGLGVSGHSMGGGGTMVVLRDDSRFTAGAPLAPYHPSGAFSGVTKPTFFLVCASDVAAPGNTYAKPWYNSMASAEKLYMSVPGDHLCPMTGYGDKAKQGKYLVSWFSRWLKGDTSYSQFLCTDSIRNVDKNNTSIVTEWMDTCPY
B13: unnamed (protein)
chain: MPPHAARPGPAQNRRGRAMAVITPRRERSSLLSRALRFTAAAATALVTAVSLAAPAHAANPYERGPNPTDALLEARSGPFSVSEERASRFGADGFGGGTIYYPRENNTYGAVAISPGYTGTQASVAWLGERIASHGFVVITIDTNTTLDQPDSRARQLNAALDYMINDASSAVRSRIDSSRLAVMGHSMGGGGSLRLASQRPDLKAAIPLTPWHLNKNWSSVRVPTLIIGADLDTIAPVLTHARPFYNSLPTSISKAYLELDGATHFAPNIPNKIIGKYSVAWLKRFVDNDTRYTQFLCPGPRDGLFGEVEEYRSTCPF
B14: unnamed (protein)
chain: MERHNSRRRWGMGLGLLLLAASAHAQYQKGPDPTSASLNASSGPFSVATSSVSSLAAVGFGSGTIYYPTTAGSYAVLAICPGFTATESSIAWLGRRIATHGFVVITINTDSTLDQPPSRATQLMAALRHVTESSSATVRSRVDASRRGVAGHSMGGGGTLYAARDNPSLKAAVPLTAWSTTKTFSSMQVPTLVVGAENDSIASVNSHSIPFYNGLPGSLDKAYAELNGASHFAPNTTNTPIGRYSVAWVKRFMDEDTRYSPFLCGAPHQSYA

Substrate: BHET
Settings: 120 h

| Protein | plate clearing |
| --- | --- |
| B1 | clears the plate (z > 3 vs empty vector) |
| B2 | not clears the plate |
| B3 | not clears the plate |
| B4 | not clears the plate |
| B5 | not clears the plate |
| B6 | not clears the plate |
| B7 | not clears the plate |
| B8 | not clears the plate |
| B9 | not clears the plate |
| B10 | clears the plate (z > 3 vs empty vector) |
| B11 | not clears the plate |
| B12 | not clears the plate |
| B13 | not clears the plate |
| B14 | not clears the plate |
